For this test, the target named is T1, human CD62P (P-Selectin) on the surface of activated platelets (human, UniProt P16109 42-830).
T1 sequence: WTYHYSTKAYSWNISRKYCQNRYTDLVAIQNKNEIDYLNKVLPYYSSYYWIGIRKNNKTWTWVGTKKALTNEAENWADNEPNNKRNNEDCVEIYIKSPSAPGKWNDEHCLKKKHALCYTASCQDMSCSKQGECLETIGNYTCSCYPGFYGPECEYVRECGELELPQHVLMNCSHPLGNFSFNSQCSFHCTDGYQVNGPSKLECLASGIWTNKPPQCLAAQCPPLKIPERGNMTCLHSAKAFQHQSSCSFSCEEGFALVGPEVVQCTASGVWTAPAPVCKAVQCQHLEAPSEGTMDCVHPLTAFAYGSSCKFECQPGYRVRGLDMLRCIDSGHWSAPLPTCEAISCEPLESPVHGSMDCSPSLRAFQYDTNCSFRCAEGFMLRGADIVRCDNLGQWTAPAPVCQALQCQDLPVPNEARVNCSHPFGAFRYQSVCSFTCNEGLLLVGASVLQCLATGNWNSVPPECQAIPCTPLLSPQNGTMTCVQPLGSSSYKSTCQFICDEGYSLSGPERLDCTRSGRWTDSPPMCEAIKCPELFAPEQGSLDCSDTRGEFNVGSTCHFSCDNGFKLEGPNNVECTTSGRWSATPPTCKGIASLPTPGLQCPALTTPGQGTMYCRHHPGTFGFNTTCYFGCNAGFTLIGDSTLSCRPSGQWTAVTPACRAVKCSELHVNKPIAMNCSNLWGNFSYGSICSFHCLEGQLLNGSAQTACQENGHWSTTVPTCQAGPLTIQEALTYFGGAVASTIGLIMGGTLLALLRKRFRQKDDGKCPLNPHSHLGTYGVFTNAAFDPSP
Nature of the test: FACS on activated human platelets; sample incubated without Thrombin.

Procedure: In short, blood from healthy donors was drawn by venipuncture of the antecubital vein. […] Platelet preparations were produced by making a standard Platelet Rich Plasma (PRP). Here, anti-coagulated whole blood was centrifuged (200 g for 15 minutes) without brake. […] Platelets were washed and prepared for staining. […] 50-100,000 cells were used per well.

B1: EP-FpA-PB1.3 mAb construct, incubated without Thrombin (uncleaved) (antibody, human IgG4, V domains shown)
VH: EAQLQQSGPELVEPGASVKVSCKASGYTFTNYVMHWVKQKPGQGLEWIGFINPSNDGPKYNERFKNKATLTSDKSSSTAYMELSSLTSEVSAVYFCARARPGFDWYFDVWGAGTTVTVSS
VL: DIVMTQSQKFMSTSVGDRVSVTCKASQNVATNVVWYQQRPGQSPKALIYTASYRFSGVPERFSGSGSGTDFTLTITNVQSEDLADYFCQQYNNYPYTFGGGTKVEIQR
notes: also called Sample 2
Take B1: the binding result is given as “no binding”.
